T1: PUF4 RNA-binding domain (Saccharomyces cerevisiae, UniProt P25339 537-888)
T1 sequence: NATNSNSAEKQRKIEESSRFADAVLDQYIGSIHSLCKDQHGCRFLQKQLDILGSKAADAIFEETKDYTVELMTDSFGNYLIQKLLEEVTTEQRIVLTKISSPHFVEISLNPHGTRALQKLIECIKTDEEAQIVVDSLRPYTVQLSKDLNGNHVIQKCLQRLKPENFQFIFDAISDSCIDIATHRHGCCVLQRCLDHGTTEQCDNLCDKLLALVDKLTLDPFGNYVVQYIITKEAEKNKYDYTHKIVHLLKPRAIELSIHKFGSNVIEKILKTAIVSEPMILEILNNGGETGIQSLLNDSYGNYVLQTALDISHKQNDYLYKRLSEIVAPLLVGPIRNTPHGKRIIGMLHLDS


Target: T1, PUF4 RNA-binding domain
Assay: Mg; RNA-MaP; 20 mM Na-HEPES pH 7.4, 30 mM KOAc, 0.75 mM MgCl2, 0.1% Tween-20, 5% glycerol, 0.1 mg/mL BSA, 2 mM DTT; 25 C; 0.0125-409.6 nM protein
Details: tags: N-His6-TEV cleaved; C-SNAP kept, Cy3B-labelled; label: tethered on chip by stalled RNA polymerase

Row | Binder | Kd
1 | Ib_S2_P5E.1_K5.1_C5.1_H5.1_A5.1_[A7T]_F5.1_[T9A]_T5.1 (ssRNA) RNA: UUUGAUUAAUAUGAUAUCGUUCUUUCUUGUAUUUUAAUUCUUUCUCGAUAUCAUAUUAAUCUUU | 2.01 nM
2 | Ia_S2_P5E.1_K5.1_C5.1_H5.1_A5.1_F5.1_[A10C]_T5.1 (ssRNA) RNA: UUUGAUUAAUAUGAUAUCGUUCUUUCUUGUAUUAUUCUUCUUUCUCGAUAUCAUAUUAAUCUUU | 12.7 nM
3 | Ib_S2_P5E.1_K5.1_C5.1_H5.1_[T1A]_A5.1_[T6C]_F5.1_T5.1 (ssRNA) RNA: UUUGAUUAAUAUGAUAUCGUUCUUUCUAGUAUCAUUAUUCUUUCUCGAUAUCAUAUUAAUCUUU | 1680 nM
4 | Ib_S2_P5E.1_K5.1_C5.1_H5.1_A5.1_[A7C]_F5.1_[A10C]_T5.1 (ssRNA) RNA: UUUGAUUAAUAUGAUAUCGUUCUUUCUUGUAUUCUUCUUCUUUCUCGAUAUCAUAUUAAUCUUU | 14.5 nM
5 | Ib_S2_P5E.1_K5.1_C5.1_H5.1_[G2C]_[A4G]_A5.1_F5.1_T5.1 (ssRNA) RNA: UUUGAUUAAUAUGAUAUCGUUCUUUCUUCUGUUAUUAUUCUUUCUCGAUAUCAUAUUAAUCUUU | 522 nM
6 | Ib_S2_P5E.1_K5.1_C5.1_H5.1_[G2T]_[A4T]_A5.1_F5.1_T5.1 (ssRNA) RNA: UUUGAUUAAUAUGAUAUCGUUCUUUCUUUUUUUAUUAUUCUUUCUCGAUAUCAUAUUAAUCUUU | > 2300 nM
7 | Ic_S2_P5E.1_K5.1_C5.1_H5.1_A5.1_[A7T]_F5.1_[A10T]_T5.1 (ssRNA) RNA: UUUGAUUAAUAUGAUAUCGUUCUUUCUUGUAUUUUUUUUCUUUCUCGAUAUCAUAUUAAUCUUU | 18.3 nM
8 | Ib_S2_P5E.1_K5.1_C5.1_H5.1_[T3G]_[A4T]_A5.1_F5.1_T5.1 (ssRNA) RNA: UUUGAUUAAUAUGAUAUCGUUCUUUCUUGGUUUAUUAUUCUUUCUCGAUAUCAUAUUAAUCUUU | 965 nM
9 | Ib_S2_P5E.1_K5.1_C5.1_H5.1_[T1A]_A5.1_[A7G]_F5.1_T5.1 (ssRNA) RNA: UUUGAUUAAUAUGAUAUCGUUCUUUCUAGUAUUGUUAUUCUUUCUCGAUAUCAUAUUAAUCUUU | > 2300 nM
10 | Ib_S2_P5E.1_K5.1_C5.1_H5.1_A5.1_[T5G]_F5.1_[A10G]_T5.1 (ssRNA) RNA: UUUGAUUAAUAUGAUAUCGUUCUUUCUUGUAGUAUUGUUCUUUCUCGAUAUCAUAUUAAUCUUU | 84.5 nM
11 | Ib_S2_P5E.1_K5.1_C5.1_H5.1_[T1G]_[G2C]_A5.1_F5.1_T5.1 (ssRNA) RNA: UUUGAUUAAUAUGAUAUCGUUCUUUCUGCUAUUAUUAUUCUUUCUCGAUAUCAUAUUAAUCUUU | 1120 nM
12 | Ib_S2_P5E.1_K5.1_C5.1_H5.1_[G2C]_[A4C]_A5.1_F5.1_T5.1 (ssRNA) RNA: UUUGAUUAAUAUGAUAUCGUUCUUUCUUCUCUUAUUAUUCUUUCUCGAUAUCAUAUUAAUCUUU | > 2300 nM
13 | Ib_S2_P5E.1_K5.1_C5.1_H5.1_A5.1_[T5C]_F5.1_[A10C]_T5.1 (ssRNA) RNA: UUUGAUUAAUAUGAUAUCGUUCUUUCUUGUACUAUUCUUCUUUCUCGAUAUCAUAUUAAUCUUU | 4.69 nM
14 | Ib_S2_P5E.1_K5.1_C5.1_H5.1_[T1A]_[G2C]_A5.1_F5.1_T5.1 (ssRNA) RNA: UUUGAUUAAUAUGAUAUCGUUCUUUCUACUAUUAUUAUUCUUUCUCGAUAUCAUAUUAAUCUUU | 1400 nM
15 | Ia_S2_P5E.1_K5.1_C5.1_H5.1_[T1C]_A5.1_F5.1_T5.1 (ssRNA) RNA: UUUGAUUAAUAUGAUAUCGUUCUUUCUCGUAUUAUUAUUCUUUCUCGAUAUCAUAUUAAUCUUU | 258 nM
16 | Ib_S2_P5E.1_K5.1_C5.1_H5.1_[G2C]_A5.1_[T6A]_F5.1_T5.1 (ssRNA) RNA: UUUGAUUAAUAUGAUAUCGUUCUUUCUUCUAUAAUUAUUCUUUCUCGAUAUCAUAUUAAUCUUU | > 2300 nM
17 | Ib_S2_P5E.1_K5.1_C5.1_H5.1_A5.1_[T6A]_F5.1_[A10G]_T5.1 (ssRNA) RNA: UUUGAUUAAUAUGAUAUCGUUCUUUCUUGUAUAAUUGUUCUUUCUCGAUAUCAUAUUAAUCUUU | 7.49 nM
18 | Ib_S2_P5E.1_K5.1_C5.1_H5.1_A5.1_[T5C]_F5.1_[A10T]_T5.1 (ssRNA) RNA: UUUGAUUAAUAUGAUAUCGUUCUUUCUUGUACUAUUUUUCUUUCUCGAUAUCAUAUUAAUCUUU | 3.1 nM
19 | Ib_S2_P5E.1_K5.1_C5.1_H5.1_[G2T]_A5.1_[T5C]_F5.1_T5.1 (ssRNA) RNA: UUUGAUUAAUAUGAUAUCGUUCUUUCUUUUACUAUUAUUCUUUCUCGAUAUCAUAUUAAUCUUU | > 2300 nM
20 | Ia_S2_P5E.1_K5.1_C5.1_H5.1_A5.1_F5.1_[A10T]_T5.1 (ssRNA) RNA: UUUGAUUAAUAUGAUAUCGUUCUUUCUUGUAUUAUUUUUCUUUCUCGAUAUCAUAUUAAUCUUU | 7.7 nM
21 | Ib_S2_P5E.1_K5.1_C5.1_H5.1_[G2T]_A5.1_[T6A]_F5.1_T5.1 (ssRNA) RNA: UUUGAUUAAUAUGAUAUCGUUCUUUCUUUUAUAAUUAUUCUUUCUCGAUAUCAUAUUAAUCUUU | 1970 nM
22 | Ib_S2_P5E.1_K5.1_C5.1_H5.1_A5.1_[T5G]_F5.1_[A10C]_T5.1 (ssRNA) RNA: UUUGAUUAAUAUGAUAUCGUUCUUUCUUGUAGUAUUCUUCUUUCUCGAUAUCAUAUUAAUCUUU | 61.5 nM
23 | Ib_S2_P5E.1_K5.1_C5.1_H5.1_A5.1_[A7T]_F5.1_[A10G]_T5.1 (ssRNA) RNA: UUUGAUUAAUAUGAUAUCGUUCUUUCUUGUAUUUUUGUUCUUUCUCGAUAUCAUAUUAAUCUUU | 10.8 nM

Row | Binder | Kd
24 | Ib_S2_P5E.1_K5.1_C5.1_H5.1_A5.1_[T6A]_F5.1_[A10T]_T5.1 (ssRNA) RNA: UUUGAUUAAUAUGAUAUCGUUCUUUCUUGUAUAAUUUUUCUUUCUCGAUAUCAUAUUAAUCUUU | 6.98 nM
25 | Ib_S2_P5E.1_K5.1_C5.1_H5.1_A5.1_[A7T]_F5.1_[A10C]_T5.1 (ssRNA) RNA: UUUGAUUAAUAUGAUAUCGUUCUUUCUUGUAUUUUUCUUCUUUCUCGAUAUCAUAUUAAUCUUU | 13 nM
26 | Ib_S2_P5E.1_K5.1_C5.1_H5.1_[G2A]_A5.1_[T6C]_F5.1_T5.1 (ssRNA) RNA: UUUGAUUAAUAUGAUAUCGUUCUUUCUUAUAUCAUUAUUCUUUCUCGAUAUCAUAUUAAUCUUU | 353 nM
27 | Ib_S2_P5E.1_K5.1_C5.1_H5.1_[T1G]_[G2T]_A5.1_F5.1_T5.1 (ssRNA) RNA: UUUGAUUAAUAUGAUAUCGUUCUUUCUGUUAUUAUUAUUCUUUCUCGAUAUCAUAUUAAUCUUU | 39.1 nM
28 | Ib_S2_P5E.1_K5.1_C5.1_H5.1_[T1A]_[G2T]_A5.1_F5.1_T5.1 (ssRNA) RNA: UUUGAUUAAUAUGAUAUCGUUCUUUCUAUUAUUAUUAUUCUUUCUCGAUAUCAUAUUAAUCUUU | 1610 nM
29 | Ib_S2_P5E.1_K5.1_C5.1_H5.1_[G2C]_A5.1_[T5A]_F5.1_T5.1 (ssRNA) RNA: UUUGAUUAAUAUGAUAUCGUUCUUUCUUCUAAUAUUAUUCUUUCUCGAUAUCAUAUUAAUCUUU | 870 nM
30 | Ib_S2_P5E.1_K5.1_C5.1_H5.1_A5.1_[T6C]_F5.1_[A10C]_T5.1 (ssRNA) RNA: UUUGAUUAAUAUGAUAUCGUUCUUUCUUGUAUCAUUCUUCUUUCUCGAUAUCAUAUUAAUCUUU | 6.38 nM
31 | Ib_S2_P5E.1_K5.1_C5.1_H5.1_[T1C]_[T3C]_A5.1_F5.1_T5.1 (ssRNA) RNA: UUUGAUUAAUAUGAUAUCGUUCUUUCUCGCAUUAUUAUUCUUUCUCGAUAUCAUAUUAAUCUUU | > 2300 nM
32 | Ib_S2_P5E.1_K5.1_C5.1_H5.1_[T3C]_[A4C]_A5.1_F5.1_T5.1 (ssRNA) RNA: UUUGAUUAAUAUGAUAUCGUUCUUUCUUGCCUUAUUAUUCUUUCUCGAUAUCAUAUUAAUCUUU | 1540 nM
33 | Ib_S2_P5E.1_K5.1_C5.1_H5.1_[T1C]_A5.1_[T5C]_F5.1_T5.1 (ssRNA) RNA: UUUGAUUAAUAUGAUAUCGUUCUUUCUCGUACUAUUAUUCUUUCUCGAUAUCAUAUUAAUCUUU | 331 nM
34 | Ib_S2_P5E.1_K5.1_C5.1_H5.1_[T1C]_[A4T]_A5.1_F5.1_T5.1 (ssRNA) RNA: UUUGAUUAAUAUGAUAUCGUUCUUUCUCGUUUUAUUAUUCUUUCUCGAUAUCAUAUUAAUCUUU | 836 nM
35 | Ib_S2_P5E.1_K5.1_C5.1_H5.1_A5.1_[T5A]_F5.1_[A10T]_T5.1 (ssRNA) RNA: UUUGAUUAAUAUGAUAUCGUUCUUUCUUGUAAUAUUUUUCUUUCUCGAUAUCAUAUUAAUCUUU | 9.98 nM
36 | Ib_S2_P5E.1_K5.1_C5.1_H5.1_[G2A]_[A4C]_A5.1_F5.1_T5.1 (ssRNA) RNA: UUUGAUUAAUAUGAUAUCGUUCUUUCUUAUCUUAUUAUUCUUUCUCGAUAUCAUAUUAAUCUUU | 810 nM
37 | Ib_S2_P5E.1_K5.1_C5.1_H5.1_[G2A]_A5.1_[T5G]_F5.1_T5.1 (ssRNA) RNA: UUUGAUUAAUAUGAUAUCGUUCUUUCUUAUAGUAUUAUUCUUUCUCGAUAUCAUAUUAAUCUUU | 1490 nM
38 | Ib_S2_P5E.1_K5.1_C5.1_H5.1_[T3G]_[A4C]_A5.1_F5.1_T5.1 (ssRNA) RNA: UUUGAUUAAUAUGAUAUCGUUCUUUCUUGGCUUAUUAUUCUUUCUCGAUAUCAUAUUAAUCUUU | 1020 nM
39 | Ib_S2_P5E.1_K5.1_C5.1_H5.1_A5.1_[T6A]_F5.1_[A10C]_T5.1 (ssRNA) RNA: UUUGAUUAAUAUGAUAUCGUUCUUUCUUGUAUAAUUCUUCUUUCUCGAUAUCAUAUUAAUCUUU | 6.16 nM
40 | Ib_S2_P5E.1_K5.1_C5.1_H5.1_[G2T]_A5.1_[T6C]_F5.1_T5.1 (ssRNA) RNA: UUUGAUUAAUAUGAUAUCGUUCUUUCUUUUAUCAUUAUUCUUUCUCGAUAUCAUAUUAAUCUUU | 2030 nM
41 | Ib_S2_P5E.1_K5.1_C5.1_H5.1_[T3C]_[A4T]_A5.1_F5.1_T5.1 (ssRNA) RNA: UUUGAUUAAUAUGAUAUCGUUCUUUCUUGCUUUAUUAUUCUUUCUCGAUAUCAUAUUAAUCUUU | 930 nM
42 | Ib_S2_P5E.1_K5.1_C5.1_H5.1_[T1A]_A5.1_[T5C]_F5.1_T5.1 (ssRNA) RNA: UUUGAUUAAUAUGAUAUCGUUCUUUCUAGUACUAUUAUUCUUUCUCGAUAUCAUAUUAAUCUUU | > 2300 nM
43 | Ia_S2_P5E.1_K5.1_C5.1_H5.1_A5.1_F5.1_[A10G]_T5.1 (ssRNA) RNA: UUUGAUUAAUAUGAUAUCGUUCUUUCUUGUAUUAUUGUUCUUUCUCGAUAUCAUAUUAAUCUUU | 7.81 nM
44 | Ib_S2_P5E.1_K5.1_C5.1_H5.1_A5.1_[T6C]_F5.1_[A10T]_T5.1 (ssRNA) RNA: UUUGAUUAAUAUGAUAUCGUUCUUUCUUGUAUCAUUUUUCUUUCUCGAUAUCAUAUUAAUCUUU | 4.73 nM
45 | UCUCUUUCUAUAUAUCUCUU (ssRNA) [Ia_S1_P3E.1_K3.1_C3.1_H3.1_[G2C]_A3.1_F3.1_T3.1] | > 2300 nM

Reference: publication PMC9352680, “A comprehensive thermodynamic model for RNA binding by the Saccharomyces cerevisiae Pumilio protein PUF4”
